Laboratory results published in patent US20110319287A1, “MODULATOR ASSAY” (ADDEX PHARMA S.A., priority 2009, published 2011).

T1: TL1A-activated DR3 receptor (Homo sapiens, UniProt Q93038, P167L)
T1 construct: (N); expressed in transfected cells; host or cells: HeLa Tet-On cells stably expressing TRADD-EYFP, transfected with pTRE2-DR3 (HeLa TRADD DR3)
T1 sequence (Q93038 with tags, fused parts or gaps P167L): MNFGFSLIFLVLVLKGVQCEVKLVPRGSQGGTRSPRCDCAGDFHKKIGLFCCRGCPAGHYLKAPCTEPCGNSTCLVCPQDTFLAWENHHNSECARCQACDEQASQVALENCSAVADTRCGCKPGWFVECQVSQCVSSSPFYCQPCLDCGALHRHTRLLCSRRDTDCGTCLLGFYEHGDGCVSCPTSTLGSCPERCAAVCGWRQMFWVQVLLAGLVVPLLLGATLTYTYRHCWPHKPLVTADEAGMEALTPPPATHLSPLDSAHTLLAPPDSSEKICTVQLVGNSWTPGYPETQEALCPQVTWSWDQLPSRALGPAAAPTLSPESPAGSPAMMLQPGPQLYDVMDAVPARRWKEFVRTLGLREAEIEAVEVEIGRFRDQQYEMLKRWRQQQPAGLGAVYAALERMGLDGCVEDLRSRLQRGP

T2: TL1A-activated DR3 receptor (Homo sapiens, UniProt Q93038)
T2 construct: (N); expressed in transfected cells; host or cells: HeLa Tet-On cells stably expressing TRADD-EYFP, transfected with pTRE2-DR3 (HeLa TRADD DR3)
T2 sequence (Q93038 with tags, fused parts or gaps P167L): T1 sequence (Q93038 with tags, fused parts or gaps P167L)

B1: CD40L: Fc [human]: CD40L [human] from Apotech Corporation (protein)
chain: GDQNPQIAAHVISEASSKTTSVLQWAEKGYYTMSNNLVTLENGKQLTVKRQGLYYIYAQVTFCSNREASSQAPFIASLCLKSPGRFERILLRAANTHSSAKPCGQQSIHLGGVFELQPGASVFVNVTDPSQVSHGTGFTSFGLLKL
modifications: left off: a dimerising Fc or GST
notes: Fc [human]: CD40L [human] from Apotech Corporation
B2: DcR3: DR3 inhibitor; Recombinant Human DcR3/TNFRSF6B/Fc Chimera from R&D Systems (protein)
chain: VAETPTYPWRDAETGERLVCAQCPPGTFVQRPCRRDSPTTCGPCPPRHYTQFWNYLERCRYCNVLCGEREEEARACHATHNRACRCRTGFFAHAGFCLEHASCPPGAGVIAPGTPSQNTQCQPCPPGTFSASSSSSEQCQPHRNCTALGLALNVPGSSSHDTLCTSCTGFPLSTRVPGAEECERAVIDFVAFQDISIKRLQRLLQALEAPEGWGPTPRAGRAALQLKLRRRLTELLGAQDGALLVRLLQALRVARMPGLERSVRERFLPVH
modifications: left off: a dimerising Fc or GST
notes: Recombinant Human DcR3/TNFRSF6B/Fc Chimera from R&D Systems

How the values were obtained:
[1] = system: TNF-induced relocalisation of EYFP-TRADD (TNFR1-containing complex I) in HeLa cells; assay: TNF-mediated relocation of fluorescently tagged TRADD in Clone #49-E2 HeLa cells, 384-well (Example 2); assay type: cell-based, human; conditions: added instead of TNF; FIG. 12
Procedure: The following experimental procedure to detect the reporter molecule in the presence of absence of a “test” compound (or molecule, as described below) was conducted.
On day 1, 10^3 cells per well were plated in thin glass bottom 384 wells plate in 50 μl of culture media (DMEM glutamax, 10% FBS, peni-strep, geneticin, hygromycin). The cells were incubated overnight at 37° C. On day 2, media was aspirated, and 35 μl of warm DMEM, 2, 5% FBS, HEPES 10 mM added. Then, 15 μl of 4× the test compound diluted in DMEM, 2, 5% FBS, HEPES 10 mM was added to cells using a Biomek laboratory automation workstation (Beckman-Coulter). This was incubated at room temperature for 1.5 min. […] The cells were washed three times with PBS 1× using an Embla 384 Cell Washer (Molecular Devices). Cells were fixed by adding PBS 1×, 5% PFA+Hoescht 0.2 μg/ml using a Multidrop 384 dispensor (Thermo Scientific; 30 μl/well) followed by an incubation for 20 min at room temperature in the dark. After a further three washes of the cells with PBS 1× using the Embla 384 Cell Washer, 60 μl per well of PBS 1×, 1% peni-strep was added. The plate was covered with a transparent sealing film. Readings were then taken on the Scientific Cellomics ArrayScan HCS Reader automated microscope system as used in Example 1.

[2] = system: TNF-induced TRADD relocalisation in HeLa TRADD DR3 cells; assay: TNF-induced TRADD-EYFP relocation in HeLa TRADD DR3 recombinant cells (Example 3); assay type: cell-based, human; conditions: in the presence of 100 ng/ml TNF; FIG. 19
Excerpt: (§1) In a further example of the present invention, a method involving the TL1A-activated DR3 receptor was developed. The TRADD-EYFP HeLa clones comprising the TRADD-EYFP reporter molecule transfected into HeLa cells as described in Example 1 was employed. The DR3 receptor (cDNA sequence shown in SEQ ID NO: 19 and encoded protein shown in SEQ ID NO: 20) which had been cloned in the vector pCR3.1 (Invitrogen) was transferred into the vector pTre2 (Clontech) using the Gateway® cloning technique with the primers Attb1 Forward primer (SEQ ID NO: 21) and Attb2 Reverse primer (SEQ ID NO: 22), yielding a pTRE2-DR3 expression vector (SEQ ID NO: 23). This expression vector was then transfected into the TRADD-EYFP HeLa clones to produce a double transformants designated HeLa TRADD DR3.
(§2) Monitoring and quantification of the TRADD-EYFP reporter molecule was conducted as described in Examples 1 and 2 above. […] The data of FIG. 17 are depicted graphically in FIG. 18.

[3] = target: T1, TL1A-activated DR3 receptor; assay: TL1A-induced TRADD-EYFP relocation in HeLa TRADD DR3 recombinant cells (Example 3); assay type: cell-based; conditions: in the presence of 300 ng/ml TL1A; FIG. 17
Excerpt: as §1, §2

[4] = target: T2, TL1A-activated DR3 receptor; assay: as above; assay type: cell-based; conditions: in the presence of 300 ng/ml TL1A; FIG. 17
Excerpt: as §1, §2

Molecule	selectivity: relocalisation of the reporter molecule EYFP-TRADD effected by other compounds or molecules [1]	dose-dependent inhibition of TNF-induced relocalisation [2]	dose-dependent inhibition of TL1A-induced relocalisation [3]	IC50 on TL1A-induced relocalisation [4]
B1	not effected	–	–	–
B2	–	not	dose-dependently inhibited	1.41 µg/mL
